{"source": "paper PMC6786531", "key": {"[1]": {"molecular_target": "Paclitaxel-stabilised microtubules of unlabelled porcine brain tubulin (porcine) (UniProt P02550)"}, "[2]": {"molecular_target": "Paclitaxel-stabilised microtubules containing 10% X-rhodamine-labelled and 10% biotin-labelled tubulin (porcine) (UniProt P02550)"}, "[3]": {"molecular_target": "P. falciparum kinesin-8X motor domain with C-terminal SNAPf tag, biotinylated (Pfkinesin-8X-MD-SNAP) (P. falciparum)"}, "[4]": {"molecular_target": "P. berghei kinesin-8X motor domain with C-terminal SNAPf tag, biotinylated (Pbkinesin-8X-MD-SNAP) (P. berghei)"}}}
{"substance": "P. berghei kinesin-8X motor domain (Pbkinesin-8X-MD) (domain or fragment)", "values": [{"measurement": "MT-stimulated ATPase activity, K1/2(MT) (enzyme-coupled assay, 250 nM motor domain, 0-6 uM paclitaxel-stabilised MTs, 37°C)", "setting": "[1]", "value": 2.2, "unit": "µM"}, {"measurement": "MT-stimulated ATPase activity, Vmax (enzyme-coupled assay, 37°C)", "setting": "[1]", "value": 2.2, "unit": "ATP/s"}, {"measurement": "MT depolymerization rate with AMPPNP (TIRF microscopy, 2.5 uM motor domain, 5 mM nucleotide, room temperature)", "setting": "[2]", "value": 1.8, "unit": "nm/s"}, {"measurement": "MT depolymerization rate with ATP (TIRF microscopy, 2.5 uM motor domain, 5 mM nucleotide, room temperature)", "setting": "[2]", "value": 4.3, "unit": "nm/s"}]}
{"substance": "P. falciparum kinesin-8X motor domain (Pfkinesin-8X-MD) (domain or fragment)", "values": [{"measurement": "MT-stimulated ATPase activity, K1/2(MT) (enzyme-coupled assay, 250 nM motor domain, 0-6 uM paclitaxel-stabilised MTs, 26°C)", "setting": "[1]", "value": 1.3, "unit": "µM"}, {"measurement": "MT-stimulated ATPase activity, Vmax (enzyme-coupled assay, 26°C)", "setting": "[1]", "value": 6.5, "unit": "ATP/s"}, {"measurement": "MT depolymerization rate with AMPPNP (TIRF microscopy, 2.5 uM motor domain, 5 mM nucleotide, room temperature)", "setting": "[2]", "value": 0.3, "unit": "nm/s"}, {"measurement": "MT depolymerization rate with ATP (TIRF microscopy, 2.5 uM motor domain, 5 mM nucleotide, room temperature)", "setting": "[2]", "value": 0.5, "unit": "nm/s"}]}
{"substance": "Paclitaxel-stabilised microtubules containing 10% X-rhodamine-labelled tubulin (from UniProt P02550 1-451) (complex)", "values": [{"measurement": "MT gliding velocity on surface-held biotinylated motor domain (TIRF microscopy, 5 mM ATP, room temperature)", "setting": "[3]", "value": 3.7, "unit": "nm/s"}, {"measurement": "MT gliding velocity on surface-held biotinylated motor domain (TIRF microscopy, 5 mM ATP, room temperature)", "setting": "[4]", "value": 17.8, "unit": "nm/s"}]}
